# System: Escherichia coli TOP10
# Assay: shrunken log2 fold change of peptide-encoding DNA abundance (4.5 h post-induction vs induction); higher = less antimicrobial activity (less host growth inhibition)
# Settings: time post-induction: 4.5 h; library: site-saturation at positions 5, 18, 19, 20
# 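Note: peptides expressed intracellularly from a pBAD plasmid library in pooled LB shake-flask culture, induced with 0.3% L-arabinose, DNA abundance read by NGS, three biological replicates, DESeq2 with apeglm shrinkage.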
row,Sequence,shrunken log2 fold change
1,RRIRNRPPRLPRPRPRPNLPPRP,-0.0407
2,RRIRPRPPRLPRPRPRPDFMPRP,-0.309
3,RRIRSRPPRLPRPRPRPYYKPRP,-0.892
4,RRIRNRPPRLPRPRPRPAYWPRP,0.0638
5,RRIRTRPPRLPRPRPRPRHEPRP,-0.13
6,RRIRARPPRLPRPRPRPQANPRP,0.304
7,RRIRSRPPRLPRPRPRPWFGPRP,-0.124
8,RRIRPRPPRLPRPRPRPYVIPRP,-0.401
9,RRIRHRPPRLPRPRPRPPSCPRP,0.604
10,RRIRARPPRLPRPRPRPSVHPRP,-0.0906
11,RRIRERPPRLPRPRPRPHFHPRP,-0.597
12,RRIRKRPPRLPRPRPRPLYRPRP,-0.0664
13,RRIRTRPPRLPRPRPRPNMHPRP,0.561
14,RRIRVRPPRLPRPRPRPNTYPRP,-0.71
15,RRIRDRPPRLPRPRPRPKDHPRP,0.0158
16,RRIRVRPPRLPRPRPRPEQLPRP,0.185
17,RRIRDRPPRLPRPRPRPGMAPRP,0.22
18,RRIRERPPRLPRPRPRPCGCPRP,-0.0805
19,RRIRTRPPRLPRPRPRPDCYPRP,-0.000691
20,RRIRERPPRLPRPRPRPVHGPRP,-0.152
21,RRIRWRPPRLPRPRPRPCMFPRP,-0.244
22,RRIRDRPPRLPRPRPRPKTVPRP,0.271
23,RRIRSRPPRLPRPRPRPLRRPRP,0.404
24,RRIRHRPPRLPRPRPRPKISPRP,-0.395
25,RRIRFRPPRLPRPRPRPMCHPRP,-0.325

row,Sequence,shrunken log2 fold change
1,RRIRHRPPRLPRPRPRPWCAPRP,-0.145
2,RRIRGRPPRLPRPRPRPKMHPRP,0.769
3,RRIRWRPPRLPRPRPRPQDEPRP,-0.143
4,RRIRYRPPRLPRPRPRPERRPRP,0.197
5,RRIRDRPPRLPRPRPRPPKSPRP,0.555
6,RRIRIRPPRLPRPRPRPIFHPRP,-0.411
7,RRIRMRPPRLPRPRPRPSWWPRP,0.169
8,RRIRNRPPRLPRPRPRPKWAPRP,-0.0431
9,RRIRVRPPRLPRPRPRPIACPRP,0.0889
10,RRIRQRPPRLPRPRPRPRFKPRP,-0.128
11,RRIRWRPPRLPRPRPRPINMPRP,-0.328
12,RRIRQRPPRLPRPRPRPNSYPRP,-0.225
13,RRIRYRPPRLPRPRPRPQMQPRP,-0.794
14,RRIRPRPPRLPRPRPRPPIQPRP,0.00728
15,RRIRHRPPRLPRPRPRPIPEPRP,-0.16
16,RRIRWRPPRLPRPRPRPCTTPRP,-0.183
17,RRIRRRPPRLPRPRPRPSSNPRP,-0.148
18,RRIRFRPPRLPRPRPRPALQPRP,-0.142
19,RRIRVRPPRLPRPRPRPCAFPRP,-0.264
20,RRIRKRPPRLPRPRPRPVPCPRP,0.0663
21,RRIRARPPRLPRPRPRPRLNPRP,0.316
22,RRIRPRPPRLPRPRPRPLHYPRP,-0.11
23,RRIRPRPPRLPRPRPRPTSLPRP,0.044
24,RRIRERPPRLPRPRPRPCIQPRP,-1.15
25,RRIRVRPPRLPRPRPRPDAFPRP,0.203

row,Sequence,shrunken log2 fold change
1,RRIRKRPPRLPRPRPRPHPDPRP,-0.0313
2,RRIRCRPPRLPRPRPRPQPQPRP,0.526
3,RRIRKRPPRLPRPRPRPHVWPRP,0.82
4,RRIRCRPPRLPRPRPRPGCYPRP,-0.501
5,RRIRQRPPRLPRPRPRPKDFPRP,-0.00088
6,RRIRDRPPRLPRPRPRPKKEPRP,0.0609
7,RRIRLRPPRLPRPRPRPVCHPRP,-0.274
8,RRIRERPPRLPRPRPRPLREPRP,0.385
9,RRIRARPPRLPRPRPRPASKPRP,0.0747
10,RRIRYRPPRLPRPRPRPKPYPRP,-0.698
11,RRIRYRPPRLPRPRPRPLNPPRP,0.0535
12,RRIRDRPPRLPRPRPRPLGIPRP,0.143
13,RRIRARPPRLPRPRPRPDHNPRP,-0.154
14,RRIRERPPRLPRPRPRPKQPPRP,0.236
15,RRIRRRPPRLPRPRPRPWQFPRP,-0.0199
16,RRIRTRPPRLPRPRPRPWGHPRP,-0.066
17,RRIRSRPPRLPRPRPRPSNMPRP,-1.05
18,RRIRYRPPRLPRPRPRPNTDPRP,-0.964
19,RRIRYRPPRLPRPRPRPNASPRP,-0.088
20,RRIRLRPPRLPRPRPRPKAQPRP,-0.00354
21,RRIRQRPPRLPRPRPRPNTPPRP,-0.0687
22,RRIRERPPRLPRPRPRPQQDPRP,-0.108
23,RRIRQRPPRLPRPRPRPVQPPRP,0.0898
24,RRIRDRPPRLPRPRPRPTKQPRP,0.188
25,RRIRGRPPRLPRPRPRPCAIPRP,2.08

# Reference: the supplement of paper PMC9112550, “Optimization of the antimicrobial peptide Bac7 by deep mutational scanning” (BMC Biology, 2022)
